{
  "source": "patent US20240182911A1",
  "about": "(University of California, published 2024)",
  "binders": {"B1": {"name": "Nb.b201i3 (VHH)", "VHH": "QVQLQESGGGLVQAGGSLRLSCAASGYISDAYYMGWYRQAPGKEREFVATITHGTNTYYADSVKGRFTISRDNAKNTVYLQMNSLKPEDTAVYYCAVLETRSYSFRYWGQGTQVTVSS", "notes": "also called Nb.b201 mutants"}, "B2": {"name": "Nb.b201i1 (VHH)", "VHH": "B1 VHH with E46G", "notes": "also called Nb.b201 mutants"}, "B3": {"name": "Nb.b201 (VHH)", "VHH": "B1 VHH with N83Y", "notes": "also called nanobody Nb.b201"}, "B4": {"name": "AT110 (VHH)", "VHH": "QVQLQESGGGLVQAGGSLRLSCAASGNIFDADIMGWYRQAPGKERELVASITDGGSTNYADSVKGRFTISRDNAKNTVYLQMNSLKPEDTAVYYCAAIAYPDIPTYFDYDSDYFYWGQGTQVTVSS", "notes": "also called nanobody AT110"}, "B5": {"name": "AT110 Y113H (VHH)", "VHH": "B4 VHH with Y113H", "notes": "also called single mutation Y113H"}, "B6": {"name": "AT110i102 (VHH)", "VHH": "B4 VHH with R66H, I98V"}, "B7": {"name": "AT110i101 (VHH)", "VHH": "B4 VHH with I98V", "notes": "also called AT110 I98V; dominant mutation 198V (so in the source)"}, "B8": {"name": "AT110i104 (VHH)", "VHH": "B4 VHH with R66H", "notes": "also called AT110 R66H; single mutation R66H"}, "B9": {"name": "AT110 R45C (VHH)", "VHH": "B4 VHH with R45C", "notes": "also called dominant mutation R45C"}, "B10": {"name": "AT110i103 (VHH)", "VHH": "B4 VHH with R66H, I98V, Y113H"}},
  "note": "Numbering of substitutions follows the chain as printed. Names may count otherwise.",
  "data": [
    {"target": "human serum albumin (HSA) (human, UniProt P02768 25-609)", "assay": "on-yeast binding assay: yeast-displayed nanobody, titration of HSA, n=3, EC50 from curve fit", "units": {"EC50": "nM"}, "values": [
      {"binder": "B1", "EC50": 5.4},
      {"binder": "B2", "EC50": 8},
      {"binder": "B3", "EC50": 18}
    ]},
    {"target": "T1, angiotensin II type 1 receptor (AT1R) with FLAG peptide fused to its N-terminus (human, UniProt P30556 2-359)", "T1 construct": "also called AT1R-angiotensin II complex", "T1 sequence": "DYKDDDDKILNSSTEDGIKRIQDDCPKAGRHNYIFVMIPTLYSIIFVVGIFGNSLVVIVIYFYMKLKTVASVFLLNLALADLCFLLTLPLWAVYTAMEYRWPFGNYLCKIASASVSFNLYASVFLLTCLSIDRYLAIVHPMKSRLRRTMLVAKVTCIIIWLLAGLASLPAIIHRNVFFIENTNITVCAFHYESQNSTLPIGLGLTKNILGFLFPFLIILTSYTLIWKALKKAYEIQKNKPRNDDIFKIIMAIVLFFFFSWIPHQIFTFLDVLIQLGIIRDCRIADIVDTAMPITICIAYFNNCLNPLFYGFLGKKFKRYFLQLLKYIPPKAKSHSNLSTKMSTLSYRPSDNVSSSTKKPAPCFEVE", "assay": "on-yeast binding assay: yeast-displayed nanobody, titration of AT1R-angiotensin II complex, single replicate, EC50 from curve fit", "units": {"EC50": "nM"}, "values": [
      {"binder": "B4", "EC50": 257},
      {"binder": "B5", "EC50": 35},
      {"binder": "B6", "EC50": 14},
      {"binder": "B7", "EC50": 48},
      {"binder": "B8", "EC50": 133},
      {"binder": "B9", "EC50": 15},
      {"binder": "B10", "EC50": 20}
    ]},
    {"target": "T1, angiotensin II type 1 receptor (AT1R) …", "assay": "radioligand competition binding assay on AT1R (nanobody stabilises agonist binding in the presence of antagonist; radioligand not named), three independent experiments; column headed Affinity", "units": {"IC50": "nM"}, "values": [
      {"binder": "B4", "IC50": 50},
      {"binder": "B5", "IC50": 63},
      {"binder": "B6", "IC50": 5},
      {"binder": "B7", "IC50": 15},
      {"binder": "B8", "IC50": 31},
      {"binder": "B10", "IC50": 2.5}
    ]}
  ]
}
